Laboratory results: WO2024071112A1 (dated 2024)

Target: T1, human plasminogen (human, UniProt P00747 20-810, limits assumed)
T1 construct: also called Plg
Test: ELISA, plate-coated human plasminogen, His-tagged VK and VH peptides bridged and detected by rabbit anti-His tag IgG and HRP anti-rabbit IgG, A450

T1 sequence (P00747 20-810 limits assumed): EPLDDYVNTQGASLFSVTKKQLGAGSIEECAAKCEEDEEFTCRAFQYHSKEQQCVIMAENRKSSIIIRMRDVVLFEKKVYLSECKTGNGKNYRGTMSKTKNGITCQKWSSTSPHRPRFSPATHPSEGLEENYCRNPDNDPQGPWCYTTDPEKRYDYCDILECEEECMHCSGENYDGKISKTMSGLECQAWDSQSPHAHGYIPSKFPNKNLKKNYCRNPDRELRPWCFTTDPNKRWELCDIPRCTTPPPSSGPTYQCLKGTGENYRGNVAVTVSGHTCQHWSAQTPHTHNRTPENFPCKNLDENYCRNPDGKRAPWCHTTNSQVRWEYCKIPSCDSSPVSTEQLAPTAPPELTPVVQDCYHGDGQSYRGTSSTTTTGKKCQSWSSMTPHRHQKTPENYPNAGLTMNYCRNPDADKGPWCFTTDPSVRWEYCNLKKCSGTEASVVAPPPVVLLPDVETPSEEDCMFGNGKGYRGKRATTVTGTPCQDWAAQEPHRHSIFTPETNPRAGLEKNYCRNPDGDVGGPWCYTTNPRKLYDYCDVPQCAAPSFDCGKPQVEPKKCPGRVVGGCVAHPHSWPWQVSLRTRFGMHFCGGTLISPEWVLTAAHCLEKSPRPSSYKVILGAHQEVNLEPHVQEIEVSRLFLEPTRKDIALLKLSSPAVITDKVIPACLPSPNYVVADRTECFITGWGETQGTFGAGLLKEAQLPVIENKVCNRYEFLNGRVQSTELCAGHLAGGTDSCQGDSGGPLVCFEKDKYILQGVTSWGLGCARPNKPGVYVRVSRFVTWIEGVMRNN

B1: VKc4+VHc1 (His-tagged VKc4 domain peptide combined with His-tagged VHc1 domain peptide) (other)
VL: RSDILMTQSPSSMSVSLGDTVSITCHASQGISSNIGWLQQKPGKSFKGLIYHGTNLEDGVPSRFSGSGSGADYSLTITSLESEDFADYYCVQYAQFPWTFGGGTKLEIKDIPWQGLNDIFEAQKIEWHGSHHHHHH
VH: RSEVQLQQSGAELVKPGASVKLSCTASGFNIKDYYMHWVKQRTEQGLEWIGRIDPEDGETKYAPKFQGKATITADTSSNTAYLQLSSLTSEDTAVYYCAPLLGREDYWGQGTTLTVSSDIPWQGLNDIFEAQKIEWHGSHHHHHH
notes: Two separate His-tagged mouse variable domain peptides made in E. coli (crude lysis supernatant), not covalently linked; in the ELISA they are bridged by polyclonal rabbit anti-His tag IgG; also called Kc4Hc1
B1: binds.
